Measured values from patent US20240075142A1 (LENTIGEN TECHNOLOGY, published 2024).
Values belong to the binder of their own block, whether it stands above or below them.

Molecular target: T1, CD19 Fc recombinant protein (UniProt P15391 20-291)
T1 construct: Bought staining reagent (R&D System), detected with anti-Fc-AF647; also called CD19-Fc peptide; not shown: Fc part of the bought reagent
T1 sequence (looked up): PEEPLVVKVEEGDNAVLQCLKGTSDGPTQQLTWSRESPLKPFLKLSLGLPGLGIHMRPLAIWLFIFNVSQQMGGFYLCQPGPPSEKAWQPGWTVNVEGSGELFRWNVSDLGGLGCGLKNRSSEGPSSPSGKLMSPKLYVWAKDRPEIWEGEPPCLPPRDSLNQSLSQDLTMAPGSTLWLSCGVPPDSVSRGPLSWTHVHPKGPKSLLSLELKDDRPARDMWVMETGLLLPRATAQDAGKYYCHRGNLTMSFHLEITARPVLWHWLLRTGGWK
Test: flow cytometry of CAR-transduced primary T cells stained with CD19 Fc, then anti-Fc AF647
Experimental: The surface expression of anti-CD20/CD19 CARs incorporating single chain fragment variable (ScFv) sequences reactive with fully human CD20 and CD19 antigens, is shown in Example 1 infra, FIG. 1B. The expression level for each ScFv-containing CAR was determined by flow cytometric analysis of LV-transduced T cells from healthy donors using CD19 Fc recombinant protein, followed by anti Fc AF647 (APC).
Half million CAR T cells were washed in cold AutoMACS buffer supplemented with 0.5% bovine serum albumin (Miltenyi Biotec, Bergisch Gladbach, Germany) and stained with CD19-Fc peptide (R&D System, Minneapolis, MN), followed by anti Fc-AF647 conjugate (Jackson ImmunoResearch, West Grove, PA). The 7-Aminoactinomycin D staining (7-AAD, BD Biosciences, San Jose, CA) was added to exclude dead cells. CD4 antibody labeled with Vioblue fluorochrome was used to separate CD4 and CD8 population. Non-transduced cells (UTD) were used as a negative control. Cells were washed twice, resuspended in 200 μl running buffer, and acquired by flow cytometry. Flow cytometric analysis was performed on a MACSQuant® 10 Analyzer (Miltenyi Biotec), and data plots were generated using FlowJo software (Ashland, OR).

binding result: binds
B1: CAR D0255 (CD20_CD19 CD28 CD28 BBz) (other)
chain: EIVLTQSPATLSLSPGERATLSCRASQSVSSYLAWYQQKPGQAPRLLIYDASNRATGIPARFSGSGSGTDFTLTISSLEPEDFAVYYCQQRSNWPITFGQGTRLEIKGGGGSGGGGSGGGGSEVQLVESGGGLVQPGRSLRLSCAASGFTFNDYAMHWVRQAPGKGLEWVSTISWNSGSIGYADSVKGRFTISRDNAKKSLYLQMNSLRAEDTALYYCAKDIQYGNYYYGMDVWGQGTTVTVSSGGGGSGGGGSGGGGSGGGGSGGGGSEVQLVQSGAEVKKPGASVKVSCKASGYTFTSYYMHWVRQAPGQGLEWMGLINPSGGSTSYAQKFQGRVTMTRDTSTSTVYMELSSLRSEDTAVYYCARSDRGITATDAFDIWGQGTMVTVSSGGGGSGGGGSGGGGSQSVLTQPPSVSVAPGRMAKITCGGSDIGNKNVHWYQQKPGQAPVLVVYDDYDRPSGIPERFSGSNSGDAATLTISTVEVGDEADYFCQVWDGSGDPYWMFGGGTQLTVLGAAAIEVMYPPPYLDNEKSNGTIIHVKGKHLCPSPLFPGPSKPFWVLVVVGGVLACYSLLVTVAFIIFWVRSKRSRLLHSDYMNMTPRRPGPTRKHYQPYAPPRDFAAYRSKRGRKKLLYIFKQPFMRPVQTTQEEDGCSCRFPEEEEGGCELRVKFSRSADAPAYQQGQNQLYNELNLGRREEYDVLDKRRGRDPEMGGKPRRKNPQEGLYNELQKDKMAEAYSEIGMKGERRRGKGHDGLYQGLSTATKDTYDALHMQALPPR
notes: Tandem CAR on transduced human primary T cells: CD20 scFv, G4S linker, CD19 scFv, CD28 hinge/TM, CD28_4-1BB, CD3zeta; no residue limits are stated; also called CAR DO255

binding result: binds
B2: CAR D0256 (CD20_CD19 CD8 CD28 BBz) (other)
chain: EIVLTQSPATLSLSPGERATLSCRASQSVSSYLAWYQQKPGQAPRLLIYDASNRATGIPARFSGSGSGTDFTLTISSLEPEDFAVYYCQQRSNWPITFGQGTRLEIKGGGGSGGGGSGGGGSEVQLVESGGGLVQPGRSLRLSCAASGFTFNDYAMHWVRQAPGKGLEWVSTISWNSGSIGYADSVKGRFTISRDNAKKSLYLQMNSLRAEDTALYYCAKDIQYGNYYYGMDVWGQGTTVTVSSGGGGSGGGGSGGGGSGGGGSGGGGSEVQLVQSGAEVKKPGASVKVSCKASGYTFTSYYMHWVRQAPGQGLEWMGLINPSGGSTSYAQKFQGRVTMTRDTSTSTVYMELSSLRSEDTAVYYCARSDRGITATDAFDIWGQGTMVTVSSGGGGSGGGGSGGGGSQSVLTQPPSVSVAPGRMAKITCGGSDIGNKNVHWYQQKPGQAPVLVVYDDYDRPSGIPERFSGSNSGDAATLTISTVEVGDEADYFCQVWDGSGDPYWMFGGGTQLTVLGAAATTTPAPRPPTPAPTIASQPLSLRPEACRPAAGGAVHTRGLDFACDIYIWAPLAGTCGVLLLSLVITLYCRSKRSRLLHSDYMNMTPRRPGPTRKHYQPYAPPRDFAAYRSKRGRKKLLYIFKQPFMRPVQTTQEEDGCSCRFPEEEEGGCELRVKFSRSADAPAYQQGQNQLYNELNLGRREEYDVLDKRRGRDPEMGGKPRRKNPQEGLYNELQKDKMAEAYSEIGMKGERRRGKGHDGLYQGLSTATKDTYDALHMQALPPR
notes: Tandem CAR on transduced human primary T cells: CD20 scFv, G4S linker, CD19 scFv, CD8 hinge/TM, CD28_4-1BB, CD3zeta; no residue limits are stated
